Reference: US20220411504A1 (Janssen / Centocor, published 2022)

Key:
[1] = biological target: HLA-G on cells (K562-HLA-G and HLA-G expressing tumor cells) (human); assay: cell-based or functional assay
[2] = biological target: T1, MHGW8 (B2m-3(G4S)-HLA-G1-G4S-Avi) (human, biotinylated (Avi tag) in the blocking assay); assay: SPR, mAb captured by goat anti-human Fc, MHGW8 flowed
T1 construct: Single chain β2m-HLA-G1; also called soluble HLA-G1 extracellular domain; recombinant biotinylated HLA-G1

B1: HC3B235 (bispecific antibody, human IgG1, kappa, L234A L235A)
scFv: QTVVTQEPSLTVSPGGTVTLTCRSSTGAVTTSNYANWVQQKPGQAPRGLIGGTNKRAPGTPARFSGSLLGGKAALTLSGVQPEDEAEYYCALWYSNLWVFGGGTKLTVLGGSEGKSSGSGSESKSTGGSEVQLVESGGGLVQPGGSLRLSCAASGFTFNTYAMNWVRQAPGKGLEWVARIRSKYNNYATYYAASVKGRFTISRDDSKNSLYLQMNSLKTEDTAVYYCVRHGNFGNSYVSWFAYWGQGTLVTVSSEPKSSDKTHTCPPCPAPEAAGGPSVFLFPPKPKDTLMISRTPEVTCVVVSVSHEDPEVKFNWYVDGVEVHNAKTKPREEQYNSTYRVVSVLTVLHQDWLNGKEYKCKVSNKALPAPIEKTISKAKGQPREPQVYVYPPSREEMTKNQVSLTCLVKGFYPSDIAVEWESNGQPENNYKTTPPVLDSDGSFALVSKLTVDKSRWQQGNVFSCSVMHEALHNHYTQKSLSLSPG
heavy: QVQLQQSGPGLVKPSQTLSLTCAISGDSVSSNRAAWNWIRQSPSRGLEWLGRTYYRSKWYNDYAVSVKSRITINPDTSKNQISLQLNSVTPEDTAVYYCARVRPGIPFDYWGQGTPVTVSSASTKGPSVFPLAPSSKSTSGGTAALGCLVKDYFPEPVTVSWNSGALTSGVHTFPAVLQSSGLYSLSSVVTVPSSSLGTQTYICNVNHKPSNTKVDKKVEPKSCDKTHTCPPCPAPEAAGGPSVFLFPPKPKDTLMISRTPEVTCVVVSVSHEDPEVKFNWYVDGVEVHNAKTKPREEQYNSTYRVVSVLTVLHQDWLNGKEYKCKVSNKALPAPIEKTISKAKGQPREPQVYVLPPSREEMTKNQVSLLCLVKGFYPSDIAVEWESNGQPENNYLTWPPVLDSDGSFFLYSKLTVDKSRWQQGNVFSCSVMHEALHNHYTQKSLSLSPG
light: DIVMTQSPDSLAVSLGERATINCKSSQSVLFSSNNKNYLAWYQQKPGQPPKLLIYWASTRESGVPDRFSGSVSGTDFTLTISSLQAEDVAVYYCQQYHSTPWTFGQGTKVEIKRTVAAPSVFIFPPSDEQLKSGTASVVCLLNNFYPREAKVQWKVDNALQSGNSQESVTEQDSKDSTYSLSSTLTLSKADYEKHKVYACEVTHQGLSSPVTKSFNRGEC
Cytotoxicity, EC50 (T cell-mediated, NCI-H2009-b2m target cells, 72 hr) [1]: 83.7 pM

B2: HC3B232 (bispecific antibody, human IgG1, kappa, L234A L235A)
scFv: DIQMTQSPSSLSASVGDRVTITCRARQSIGTAIHWYQQKPGKAPKLLIKYASESISGVPSRFSGSGSGTDFTLTISSVQPEDFATYYCQQSGSWPYTFGQGTKLEIKGGSEGKSSGSGSESKSTGGSEVQLVESGGGLVKPGGSLRLSCAASGFTFSRYNMNWVRQAPGKGLEWVSSISTSSNYIYYADSVKGRFTFSRDNAKNSLDLQMSGLRAEDTAIYYCTRGWGPFDYWGQGTLVTVSSEPKSSDKTHTCPPCPAPEAAGGPSVFLFPPKPKDTLMISRTPEVTCVVVSVSHEDPEVKFNWYVDGVEVHNAKTKPREEQYNSTYRVVSVLTVLHQDWLNGKEYKCKVSNKALPAPIEKTISKAKGQPREPQVYVYPPSREEMTKNQVSLTCLVKGFYPSDIAVEWESNGQPENNYKTTPPVLDSDGSFALVSKLTVDKSRWQQGNVFSCSVMHEALHNHYTQKSLSLSPGK
heavy: QVQLQQSGPGLVKPSQTLSLTCAISGDSVSSNSAAWNWIRQSPSRGLEWLGRTYYRSKWYNDYAVSVKSRITINPDTSKNQISLQLNSVTPEDTAVYYCAGDRRYGIVGLPFAYWGQGTLVTVSSASTKGPSVFPLAPSSKSTSGGTAALGCLVKDYFPEPVTVSWNSGALTSGVHTFPAVLQSSGLYSLSSVVTVPSSSLGTQTYICNVNHKPSNTKVDKKVEPKSCDKTHTCPPCPAPEAAGGPSVFLFPPKPKDTLMISRTPEVTCVVVSVSHEDPEVKFNWYVDGVEVHNAKTKPREEQYNSTYRVVSVLTVLHQDWLNGKEYKCKVSNKALPAPIEKTISKAKGQPREPQVYVLPPSREEMTKNQVSLLCLVKGFYPSDIAVEWESNGQPENNYLTWPPVLDSDGSFFLYSKLTVDKSRWQQGNVFSCSVMHEALHNHYTQKSLSLSPG
light: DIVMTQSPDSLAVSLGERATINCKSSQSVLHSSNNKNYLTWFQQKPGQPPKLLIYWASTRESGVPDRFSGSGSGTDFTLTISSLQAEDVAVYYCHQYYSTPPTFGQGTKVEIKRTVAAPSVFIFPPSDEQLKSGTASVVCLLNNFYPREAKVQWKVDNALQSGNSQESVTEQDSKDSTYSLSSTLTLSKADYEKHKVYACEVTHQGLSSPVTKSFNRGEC
Cytotoxicity, EC50 (T cell-mediated, NCI-H2009-b2m target cells, 72 hr) [1]: 6.77 pM

B3: HC3B231 (bispecific antibody, human IgG1, kappa, L234A L235A)
scFv: QSALTQPASVSGSPGQSITISCTGTSSNIGTYKFVSWYQQHPGKAPKVMIYEVSKRPSGVSNRFSGSKSGNTASLTISGLQAEDEADYYCVSYAGSGTLLFGGGTKLTVLGGSEGKSSGSGSESKSTGGSQVQLQQSGPGLVKPSQTLSLTCAISGDSVFNNNAAWSWIRQSPSRGLEWLGRTYYRSKWLYDYAVSVKSRITINPDTSKNQFSLQLNSVTPEDTAVYYCARGYSSSFDYWGQGTLVTVSSEPKSSDKTHTCPPCPAPEAAGGPSVFLFPPKPKDTLMISRTPEVTCVVVSVSHEDPEVKFNWYVDGVEVHNAKTKPREEQYNSTYRVVSVLTVLHQDWLNGKEYKCKVSNKALPAPIEKTISKAKGQPREPQVYVYPPSREEMTKNQVSLTCLVKGFYPSDIAVEWESNGQPENNYKTTPPVLDSDGSFALVSKLTVDKSRWQQGNVFSCSVMHEALHNHYTQKSLSLSPG
heavy: B2 heavy
light: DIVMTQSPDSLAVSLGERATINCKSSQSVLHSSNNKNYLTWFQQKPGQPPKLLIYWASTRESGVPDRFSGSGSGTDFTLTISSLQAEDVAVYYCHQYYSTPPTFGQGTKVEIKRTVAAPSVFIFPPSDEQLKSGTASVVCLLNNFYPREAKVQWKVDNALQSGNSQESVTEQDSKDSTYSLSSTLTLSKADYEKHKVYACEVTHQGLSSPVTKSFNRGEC
Cytotoxicity, EC50 (T cell-mediated, NCI-H2009-b2m target cells, 72 hr) [1]: 126 pM

B4: HC3B230 (bispecific antibody, human IgG1, kappa, L234A L235A)
scFv: B1 scFv
heavy: B2 heavy
light: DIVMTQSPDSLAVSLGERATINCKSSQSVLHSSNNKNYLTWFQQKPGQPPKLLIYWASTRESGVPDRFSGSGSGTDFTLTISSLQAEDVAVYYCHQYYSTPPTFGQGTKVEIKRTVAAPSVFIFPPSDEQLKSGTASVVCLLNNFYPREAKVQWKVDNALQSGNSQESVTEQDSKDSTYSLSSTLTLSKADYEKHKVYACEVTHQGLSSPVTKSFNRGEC
Cytotoxicity, EC50 (T cell-mediated, NCI-H2009-b2m target cells, 72 hr) [1]: 9.92 pM

B5: HC3B124 (bispecific antibody, human IgG1, lambda, L234A L235A)
heavy: EVQLVESGGGLVQPGGSLRLSCAASGFTFNTYAMNWVRQAPGKGLEWVARIRSKYNNYATYYAASVKGRFTISRDDSKNSLYLQMNSLKTEDTAVYYCVRHGNFGNSYVSWFAYWGQGTLVTVSSASTKGPSVFPLAPSSKSTSGGTAALGCLVKDYFPEPVTVSWNSGALTSGVHTFPAVLQSSGLYSLSSVVTVPSSSLGTQTYICNVNHKPSNTKVDKKVEPKSCDKTHTCPPCPAPEAAGGPSVFLFPPKPKDTLMISRTPEVTCVVVSVSHEDPEVKFNWYVDGVEVHNAKTKPREEQYNSTYRVVSVLTVLHQDWLNGKEYKCKVSNKALPAPIEKTISKAKGQPREPQVYVYPPSREEMTKNQVSLTCLVKGFYPSDIAVEWESNGQPENNYKTTPPVLDSDGSFALVSKLTVDKSRWQQGNVFSCSVMHEALHNHYTQKSLSLSPG
light: QTVVTQEPSLTVSPGGTVTLTCRSSTGAVTTSNYANWVQQKPGQAPRGLIGGTNKRAPGTPARFSGSLLGGKAALTLSGVQPEDEAEYYCALWYSNLWVFGGGTKLTVLGQPKAAPSVTLFPPSSEELQANKATLVCLISDFYPGAVTVAWKADSSPVKAGVETTTPSKQSNNKYAASSYLSLTPEQWKSHRSYSCQVTHEGSTVEKTVAPTECS
scFv: DIVMTQSPDSLAVSLGERATINCKSSQSVLHSSNNKNYLTWFQQKPGQPPKLLIYWASTRESGVPDRFSGSGSGTDFTLTISSLQAEDVAVYYCHQYYSTPPTFGQGTKVEIKGGSEGKSSGSGSESKSTGGSQVQLQQSGPGLVKPSQTLSLTCAISGDSVSSNSAAWNWIRQSPSRGLEWLGRTYYRSKWYNDYAVSVKSRITINPDTSKNQISLQLNSVTPEDTAVYYCAGDRRYGIVGLPFAYWGQGTLVTVSSEPKSSDKTHTCPPCPAPEAAGGPSVFLFPPKPKDTLMISRTPEVTCVVVSVSHEDPEVKFNWYVDGVEVHNAKTKPREEQYNSTYRVVSVLTVLHQDWLNGKEYKCKVSNKALPAPIEKTISKAKGQPREPQVYVLPPSREEMTKNQVSLLCLVKGFYPSDIAVEWESNGQPENNYLTWPPVLDSDGSFFLYSKLTVDKSRWQQGNVFSCSVMHEALHNHYTQKSLSLSPG
Cytotoxicity, EC50 (T cell-mediated, NCI-H2009-b2m target cells, 72 hr) [1]: 3.85 pM

B6: HC3B123 (bispecific antibody, human IgG1, kappa, L234A L235A)
heavy: EVQLVESGGGLVKPGGSLRLSCAASGFTFSRYNMNWVRQAPGKGLEWVSSISTSSNYIYYADSVKGRFTFSRDNAKNSLDLQMSGLRAEDTAIYYCTRGWGPFDYWGQGTLVTVSSASTKGPSVFPLAPSSKSTSGGTAALGCLVKDYFPEPVTVSWNSGALTSGVHTFPAVLQSSGLYSLSSVVTVPSSSLGTQTYICNVNHKPSNTKVDKKVEPKSCDKTHTCPPCPAPEAAGGPSVFLFPPKPKDTLMISRTPEVTCVVVSVSHEDPEVKFNWYVDGVEVHNAKTKPREEQYNSTYRVVSVLTVLHQDWLNGKEYKCKVSNKALPAPIEKTISKAKGQPREPQVYVYPPSREEMTKNQVSLTCLVKGFYPSDIAVEWESNGQPENNYKTTPPVLDSDGSFALVSKLTVDKSRWQQGNVFSCSVMHEALHNHYTQKSLSLSPG
light: DIQMTQSPSSLSASVGDRVTITCRARQSIGTAIHWYQQKPGKAPKLLIKYASESISGVPSRFSGSGSGTDFTLTISSVQPEDFATYYCQQSGSWPYTFGQGTKLEIKRTVAAPSVFIFPPSDEQLKSGTASVVCLLNNFYPREAKVQWKVDNALQSGNSQESVTEQDSKDSTYSLSSTLTLSKADYEKHKVYACEVTHQGLSSPVTKSFNRGEC
scFv: B5 scFv
Cytotoxicity, EC50 (T cell-mediated, NCI-H2009-b2m target cells, 72 hr) [1]: 3.24 pM

B7: HC3B216 (bispecific antibody, human IgG1, lambda, L234A L235A)
heavy: QVQLQQSGPRLVRPSQTLSLTCAISGDSVFNNNAAWSWIRQSPSRGLEWLGRTYYRSKWLYDYAVSVKSRITVNPDTSRNQFTLQLNSVTPEDTALYYCARGYSSSFDYWGQGTLVTVSSASTKGPSVFPLAPSSKSTSGGTAALGCLVKDYFPEPVTVSWNSGALTSGVHTFPAVLQSSGLYSLSSVVTVPSSSLGTQTYICNVNHKPSNTKVDKKVEPKSCDKTHTCPPCPAPEAAGGPSVFLFPPKPKDTLMISRTPEVTCVVVSVSHEDPEVKFNWYVDGVEVHNAKTKPREEQYNSTYRVVSVLTVLHQDWLNGKEYKCKVSNKALPAPIEKTISKAKGQPREPQVYVYPPSREEMTKNQVSLTCLVKGFYPSDIAVEWESNGQPENNYKTTPPVLDSDGSFALVSKLTVDKSRWQQGNVFSCSVMHEALHNHYTQKSLSLSPG
light: QSALTQPASVSGSPGQSITISCTGTSSNIGTYKFVSWYQQHPDKAPKVLLYEVSKRPSGVSSRFSGSKSGNTASLTISGLQAEDQADYHCVSYAGSGTLLFGGGTKLTVLGQPKAAPSVTLFPPSSEELQANKATLVCLISDFYPGAVTVAWKADSSPVKAGVETTTPSKQSNNKYAASSYLSLTPEQWKSHRSYSCQVTHEGSTVEKTVAPTECS
scFv: not shown
Cytotoxicity, EC50 (T cell-mediated, NCI-H2009-b2m target cells, 72 hr) [1]: 1900 pM

B8: MHGB737 (antibody, human IgG1, kappa, V domains shown)
VH: EVQLLESGGGLVQPGGSLRLSCAASGFTFSSYAMHWVRQAPGKGLEWVSGISGSGFSTYYVDSVKGRFTISRDNSKNTLYLQMNSLRAEDTAVYYCAKDNLVAGTVFDYWGQGTLVTVSS
VL: not shown
notes: IgG1; also called GL-optimized B694
Kd [2]: 2560 pM
koff [2]: 0.00031 s⁻¹
kon [2]: 200000 M⁻¹ s⁻¹
